The assay deals with type IV collagen. The assay can be described thus: cell-based or functional assay.
On to “Factor IX K5A variant (from UniProt P00740 47-461) (enzyme)”, for which the median NOD (numbers of disruption), saphenous vein bleeding model in hemophilia B mice 7 days after injection came to 8 disruptions. Then “Factor IX K5R variant (from UniProt P00740 47-461) (enzyme)”, with 19 disruptions. The figure for “wild type Factor IX (human FIX) (from UniProt P00740 47-461) (enzyme)” is 14 disruptions.

For the origin of these results see patent publication US20150307863A1.
